Assay results as given in paper PMC6180428.

Target: NagA-GFP-His6 fusion protein (N-acetylglucosamine-6-phosphate deacetylase from Mycobacterium smegmatis with C-terminal TEV-cleavable GFP-His6) (Mycobacterium smegmatis)
Experiment: SEC; Superdex 200 16/60, 20 mM Bis-Tris, 300 mM NaCl, 10% glycerol pH 8.0; oligomeric state from the elution profile

“NagA-GFP-His6 fusion protein (N-acetylglucosamine-6-phosphate deacetylase from Mycobacterium smegmatis with C-terminal TEV-cleavable GFP-His6) (enzyme)” was tested, and the stoichiometry N was 2.
